Source: patent US20240158472A1, “FERRITIN VARIANTS WITH INCREASED STABILITY AND COMPLEXATION ABILITY” (Cellis AG, priority 2021, published 2024)

Key:
[1] = Native PAGE gel after doxorubicin encapsulation and purification; assay type: physicochemical; details: after doxorubicin encapsulation; mutants carry added K54E, K72E, K87Q, K144E, C91S, C103S
Description: Native PAGE gel has been performed in order to check the size of the protein after encapsulation and purification.

[2] = Native gel after storage in freezer (-80 degrees Celsius) and thawing; assay type: physicochemical; details: ferritin cages with doxorubicin, mutants of b203
[3] = test system: MDA-MB 231, Skov3 and 4T1; assay: Tumour cell viability after 72 h co-culture with macrophages carrying doxorubicin packed ferritin; assay type: cell-based; details: ferritin cages filled with doxorubicin 1 mg/ml
Description: FIG. 7: Graphs of tumour cell viability after 72 h co-culture with macrophages. The concentration of ferritin cages filled with doxorubicin was the same for each variant of ferritin and was equal to 1 mg/ml.
The doxorubicin packed proteins were inserted into macrophages and then co-cultured with breast and ovarian cancer cell lines: MDA-MB 231, Skov3 and 4T1. The number of viable cells after co-culture was the lowest for the Q11E-Q15E mutant (FIG. 7).

B1: Q11E-Q15E mutant: Examples 3-8 ferritin variant based on Q11E-Q15E with added K54E, K72E, K87Q, K144E, C91S and C103S (protein, UniProt P02794 1-183, looked up, variant Q11E Q15E K54E K72E K87Q K144E C91S C103S)
Ferritin heavy chain: MTTASTSQVRENYHEDSEAAINRQINLELYASYVYLSMSYYFDRDDVALKNFAEYFLHQSHEEREHAEKLMELQNQRGGRIFLQDIQKPDSDDWESGLNAMESALHLEKNVNQSLLELHKLATDKNDPHLCDFIETHYLNEQVEAIKELGDHVTNLRKMGAPESGLAEYLFDKHTLGDSDNES
modifications: doxorubicin-loaded form also
Question: Which “forms on native gel (aggregates versus 24-mers)” value [1] does the source give for B1 here?
Answer: present as 24-mers (homogeneous cages)

Question: And the “aggregation of cages after storage” value [2]?
Answer: still present as 24-mers (homogeneous cages) after storage

Question: What about the “number of viable cells after co-culture” value [3] of the same molecule?
Answer: lowest
